{
  "source": "paper PMC7049697",
  "key": {"[1]": {"target": "T1, Rap1-DBD (Saccharomyces cerevisiae, UniProt P11938 358-601)", "T1 sequence": "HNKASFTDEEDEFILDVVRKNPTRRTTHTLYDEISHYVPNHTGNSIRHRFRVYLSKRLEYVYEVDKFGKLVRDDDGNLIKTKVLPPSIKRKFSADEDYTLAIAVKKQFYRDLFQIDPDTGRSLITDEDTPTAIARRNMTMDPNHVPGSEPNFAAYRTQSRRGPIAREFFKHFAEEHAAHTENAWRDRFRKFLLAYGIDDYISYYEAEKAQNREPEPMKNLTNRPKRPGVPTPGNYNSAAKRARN", "experiment": "EMSA"}, "[2]": {"target": "T2, Rap1-DBD P520L (Saccharomyces cerevisiae, UniProt P11938 358-601, P520L)", "T2 sequence": "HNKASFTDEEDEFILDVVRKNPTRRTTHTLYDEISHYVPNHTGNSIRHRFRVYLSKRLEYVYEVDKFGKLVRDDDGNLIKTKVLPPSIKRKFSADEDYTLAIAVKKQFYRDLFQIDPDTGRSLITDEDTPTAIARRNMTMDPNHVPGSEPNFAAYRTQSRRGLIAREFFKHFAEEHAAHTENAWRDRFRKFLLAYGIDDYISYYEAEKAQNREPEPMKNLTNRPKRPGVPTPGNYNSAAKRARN", "experiment": "EMSA"}},
  "data": [
    {"binder": "21 bp telomeric Rap1 site dsDNA (dsDNA) DNA 1: CCGCACACCCACACACCAGTG DNA 2: CACTGGTGTGTGGGTGTGCGG", "values": [
      {"measurement": "binding result", "setting": "[1]", "value": "binds"},
      {"measurement": "binding result", "setting": "[2]", "value": "binds"}
    ]}
  ]
}
